This note sets out measurements from patent US20220372168A1.

The target of assay [1] is Human FcγRIIb (human) (UniProt P31994). The assay can be described thus: SPR (Biacore T200), His-tagged FcγR captured on anti-penta-His chip, antibody injected.
Assay [2] deals with Human FcγRIIIa (F176) (human) (UniProt P08637). The assay is described as above.
Assay [3] has as its target Human FcγRIIa (R131) (human) (UniProt P12318). Described as above.
Assay [4] concerns the target Human FcγRI (human) (UniProt P12314). The assay is described as above.
For assay [5], the target named is Human FcγRIIIb (human) (UniProt O75015). The assay is described as above.
The target in assay [6] is Human FcγRIIa (H131) (human) (UniProt P12318). Described as above.
Assay [7] has as its target Human FcγRIIIa (V176) (human) (UniProt P08637). Described as above.
For assay [8], the target named is Human FcγRIIb (human) (UniProt P31994). The assay can be described thus: SPR (Biacore T200), His-tagged FcγR captured on anti-penta-His chip, kinetic or steady-state fit. A general note: SPR reads the build-up and loss of mass on a sensor chip optically.
The target in assay [9] is Human FcγRIIa (R131) (human) (UniProt P12318). The assay is described as above.
For assay [10], the target named is Human FcγRIIa (H131) (human) (UniProt P12318). The description is as above.

Sequence of Human FcγRIIa (H131) (human) (P12318 36-218 limits assumed): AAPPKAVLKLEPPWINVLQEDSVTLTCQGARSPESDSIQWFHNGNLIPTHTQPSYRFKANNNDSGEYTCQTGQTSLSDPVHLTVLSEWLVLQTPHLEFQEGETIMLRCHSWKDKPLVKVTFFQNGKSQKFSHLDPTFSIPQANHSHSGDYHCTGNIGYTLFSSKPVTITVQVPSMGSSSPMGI
Sequence of Human FcγRIIa (R131) (human) (P12318 36-218 H167R limits assumed): as the sequence (P12318 36-218 limits assumed) above, with H132R counted along it
Sequence of Human FcγRIIb (human) (P31994 46-217 limits assumed): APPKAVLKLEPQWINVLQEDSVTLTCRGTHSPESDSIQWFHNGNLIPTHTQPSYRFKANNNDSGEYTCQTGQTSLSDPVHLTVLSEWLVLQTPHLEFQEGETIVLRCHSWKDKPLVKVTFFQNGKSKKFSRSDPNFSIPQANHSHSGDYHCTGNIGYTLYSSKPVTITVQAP
Sequence of Human FcγRIIIa (F176) (human) (P08637 17-208 limits assumed): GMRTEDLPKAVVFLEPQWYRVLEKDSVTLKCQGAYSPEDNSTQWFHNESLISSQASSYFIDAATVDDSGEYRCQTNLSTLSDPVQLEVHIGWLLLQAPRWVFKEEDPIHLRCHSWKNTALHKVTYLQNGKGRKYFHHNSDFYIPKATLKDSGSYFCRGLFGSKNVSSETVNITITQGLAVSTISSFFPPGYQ
Sequence of Human FcγRI (human) (P12314 16-288 limits assumed): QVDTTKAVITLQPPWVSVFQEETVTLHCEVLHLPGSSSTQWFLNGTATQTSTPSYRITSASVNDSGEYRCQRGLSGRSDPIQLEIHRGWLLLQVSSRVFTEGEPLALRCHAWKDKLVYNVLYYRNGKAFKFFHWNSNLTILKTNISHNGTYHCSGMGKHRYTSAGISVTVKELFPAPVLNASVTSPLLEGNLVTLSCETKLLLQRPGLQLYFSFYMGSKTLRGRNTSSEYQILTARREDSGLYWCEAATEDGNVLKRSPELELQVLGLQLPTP
Sequence of Human FcγRIIIa (V176) (human) (P08637 17-208 F176V limits assumed): as the sequence (P08637 17-208 limits assumed) above, with F160V counted along it
Sequence of Human FcγRIIIb (human) (O75015 17-200 limits assumed): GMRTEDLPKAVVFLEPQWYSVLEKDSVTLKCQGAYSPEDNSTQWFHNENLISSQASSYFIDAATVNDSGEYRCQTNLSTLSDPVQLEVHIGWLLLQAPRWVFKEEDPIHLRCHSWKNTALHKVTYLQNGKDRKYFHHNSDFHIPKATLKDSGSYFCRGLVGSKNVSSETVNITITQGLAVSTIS

B1: mAb3 (antibody, part only; not given: variable domains, not shown: another chain or arm of the molecule)
Fc: ESKYGPPCPPCPAPPVAGPSVFLFPPKPKDTLMISRTPEVTCVVVDVSQEDPEVQFNWYVDGVEVHNAKTKPREEQFNSTYRVVSVLTVLHQDWLNGKEYKCKVSNKGLPSSIEKTISKAKGQPREPQVYTLPPSQEEMTKNQVSLTCLVKGFYPSDIAVEWESNGQPENNYKTTPPVLDSDGSFFLYSRLTVDKSRWQEGNVFSCSVMHEALHNHYTQKSLSLSLGK
As for B1, the binding signal (RU) in assay [1] is 226 RU; in assay [2] it was 6 RU; in assay [3], 340 RU; in assay [4], 36 RU; in [5] it was -8 RU; in assay [6], 419 RU. For the same molecule, the binding signal (RU) in [7] came to 34 RU. In addition, the Kd (as a rule, the equilibrium constant for the complex coming apart) in [8] amounted to 12.3 µM; in assay [9], 1320 nM; in [10] it was 1610 nM.
